Measured values as given in paper PMC7467640.

Key:
[1] = biological target: His224 (UniProt position 224, …); assay: potentiometry; conditions: 298 K; 0.1 M (NaClO4); none (4 mM HClO4, titrated with carbonate-free NaOH); metal-free peptide, 0.5 mM, argon atmosphere
[2] = biological target: His239 (UniProt position 239, …); assay: potentiometry; conditions: 298 K; 0.1 M (NaClO4); none (4 mM HClO4, titrated with carbonate-free NaOH); metal-free peptide, 0.5 mM, argon atmosphere

B1: ZnuA fragment 223-240 (secondary metal binding site peptide), Ac-GHFTVNPEIQPGAQRLHE-NH2 (Escherichia coli) (peptide)
chain: GHFTVNPEIQPGAQRLHE
- pKa [1]: 6.76
- pKa [2]: 6.16
